From IntAct's records for PubMed 31571211

B1: Phospholipid-transporting ATPase VA (Homo sapiens), O60312 (parent)
chain: MEREPAGTEEPGPPGRRRRREGRTRTVRSNLLPPPGAEDPAAGAAKGERRRRRGCAQHLADNRLKTTKYTLLSFLPKNLFEQFHRPANVYFVFIALLNFVPAVNAFQPGLALAPVLFILAITAFRDLWEDYSRHRSDHKINHLGCLVFSREEKKYVNRFWKEIHVGDFVRLRCNEIFPADILLLSSSDPDGLCHIETANLDGETNLKRRQVVRGFSELVSEFNPLTFTSVIECEKPNNDLSRFRGCIIHDNGKKAGLYKENLLLRGCTLRNTDAVVGIVIYAGHETKALLNNSGPRYKRSKLERQMNCDVLWCVLLLVCMSLFSAVGHGLWIWRYQEKKSLFYVPKSDGSSLSPVTAAVYSFLTMIIVLQVLIPISLYVSIEIVKACQVYFINQDMQLYDEETDSQLQCRALNITEDLGQIQYIFSDKTGTLTENKMVFRRCTVSGVEYSHDANAQRLARYQEADSEEEEVVPRGGSVSQRGSIGSHQSVRVVHRTQSTKSHRRTGSRAEAKRASMLSKHTAFSSPMEKDITPDPKLLEKVSECDKSLAVARHQEHLLAHLSPELSDVFDFFIALTICNTVVVTSPDQPRTKVRVRFELKSPVKTIEDFLRRFTPSCLTSGCSSIGSLAANKSSHKLGSSFPSTPSSDGMLLRLEERLGQPTSAIASNGYSSQADNWASELAQEQESERELRYEAESPDEAALVYAARAYNCVLVERLHDQVSVELPHLGRLTFELLHTLGFDSVRKRMSVVIRHPLTDEINVYTKGADSVVMDLLQPCSSVDARGRHQKKIRSKTQNYLNVYAAEGLRTLCIAKRVLSKEEYACWLQSHLEAESSLENSEELLFQSAIRLETNLHLLGATGIEDRLQDGVPETISKLRQAGLQIWVLTGDKQETAVNIAYACKLLDHDEEVITLNATSQEACAALLDQCLCYVQSRGLQRAPEKTKGKVSMRFSSLCPPSTSTASGRRPSLVIDGRSLAYALEKNLEDKFLFLAKQCRSVLCCRSTPLQKSMVVKLVRSKLKAMTLAIGDGANDVSMIQVADVGVGISGQEGMQAVMASDFAVPKFRYLERLLILHGHWCYSRLANMVLYFFYKNTMFVGLLFWFQFFCGFSASTMIDQWYLIFFNLLFSSLPPLVTGVLDRDVPANVLLTNPQLYKSGQNMEEYRPRTFWFNMADAAFQSLVCFSIPYLAYYDSNVDLFTWGTPIVTIALLTFLLHLGIETKTWTWLNWITCGFSVLLFFTVALIYNASCATCYPPSNPYWTMQALLGDPVFYLTCLMTPVAALLPRLFFRSLQGRVFPTQLQLARQLTRKSPRRCSAPKETFAQGRLPKDSGTEHSSGRTVKTSVPLSQPSWHTQQPVCSLEASGEPSTVDMSMPVREHTLLEGLSAPAPMSSAPGEAVLRSPGGCPEESKVRAASTGRVTPLSSLFSLPTFSLLNWISSWSLVSRLGSVLQFSRTEQLADGQAGRGLPVQPHSGRSGLQGPDHRLLIGASSRRSQ
partner: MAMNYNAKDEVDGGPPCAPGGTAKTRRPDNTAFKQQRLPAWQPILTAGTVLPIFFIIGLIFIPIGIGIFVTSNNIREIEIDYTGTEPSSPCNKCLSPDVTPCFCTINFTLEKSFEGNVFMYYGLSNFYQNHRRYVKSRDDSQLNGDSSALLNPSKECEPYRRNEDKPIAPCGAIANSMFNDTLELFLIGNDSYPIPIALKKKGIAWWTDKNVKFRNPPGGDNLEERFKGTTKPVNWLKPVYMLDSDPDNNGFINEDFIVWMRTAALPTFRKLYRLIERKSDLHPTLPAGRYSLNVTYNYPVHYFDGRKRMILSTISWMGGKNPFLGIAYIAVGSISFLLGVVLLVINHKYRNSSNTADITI
B2: Phospholipid-transporting ATPase IH (Homo sapiens), P98196 (parent)
chain: MDCSLVRTLVHRYCAGEENWVDSRTIYVGHREPPPGAEAYIPQRYPDNRIVSSKYTFWNFIPKNLFEQFRRVANFYFLIIFLVQLIIDTPTSPVTSGLPLFFVITVTAIKQGYEDWLRHKADNAMNQCPVHFIQHGKLVRKQSRKLRVGDIVMVKEDETFPCDLIFLSSNRGDGTCHVTTASLDGESSHKTHYAVQDTKGFHTEEDIGGLHATIECEQPQPDLYKFVGRINVYSDLNDPVVRPLGSENLLLRGATLKNTEKIFGVAIYTGMETKMALNYQSKSQKRSAVEKSMNAFLIVYLCILISKALINTVLKYMWQSEPFRDEPWYNQKTESERQRNLFLKAFTDFLAFMVLFNYIIPVSMYVTVEMQKFLGSYFITWDEDMFDEETGEGPLVNTSDLNEELGQVEYIFTDKTGTLTENNMEFKECCIEGHVYVPHVICNGQVLPESSGIDMIDSSPSVNGREREELFFRALCLCHTVQVKDDDSVDGPRKSPDGGKSCVYISSSPDEVALVEGVQRLGFTYLRLKDNYMEILNRENHIERFELLEILSFDSVRRRMSVIVKSATGEIYLFCKGADSSIFPRVIEGKVDQIRARVERNAVEGLRTLCVAYKRLIQEEYEGICKLLQAAKVALQDREKKLAEAYEQIEKDLTLLGATAVEDRLQEKAADTIEALQKAGIKVWVLTGDKMETAAATCYACKLFRRNTQLLELTTKRIEEQSLHDVLFELSKTVLRHSGSLTRDNLSGLSADMQDYGLIIDGAALSLIMKPREDGSSGNYRELFLEICRSCSAVLCCRMAPLQKAQIVKLIKFSKEHPITLAIGDGANDVSMILEAHVGIGVIGKEGRQAARNSDYAIPKFKHLKKMLLVHGHFYYIRISELVQYFFYKNVCFIFPQFLYQFFCGFSQQTLYDTAYLTLYNISFTSLPILLYSLMEQHVGIDVLKRDPTLYRDVAKNALLRWRVFIYWTLLGLFDALVFFFGAYFVFENTTVTSNGQIFGNWTFGTLVFTVMVFTVTLKLALDTHYWTWINHFVIWGSLLFYVVFSLLWGGVIWPFLNYQRMYYVFIQMLSSGPAWLAIVLLVTISLLPDVLKKVLCRQLWPTATERVQTKSQCLSVEQSTIFMLSQTSSSLSF
partner: B1 partner
B3: Phospholipid-transporting ATPase IG (Homo sapiens), Q8NB49 (parent)
chain: MQMVPSLPPASECAGEEKRVGTRTVFVGNHPVSETEAYIAQRFCDNRIVSSKYTLWNFLPKNLFEQFRRIANFYFLIIFLVQVTVDTPTSPVTSGLPLFFVITVTAIKQGYEDCLRHRADNEVNKSTVYIIENAKRVRKESEKIKVGDVVEVQADETFPCDLILLSSCTTDGTCYVTTASLDGESNCKTHYAVRDTIALCTAESIDTLRAAIECEQPQPDLYKFVGRINIYSNSLEAVARSLGPENLLLKGATLKNTEKIYGVAVYTGMETKMALNYQGKSQKRSAVEKSINAFLIVYLFILLTKAAVCTTLKYVWQSTPYNDEPWYNQKTQKERETLKVLKMFTDFLSFMVLFNFIIPVSMYVTVEMQKFLGSFFISWDKDFYDEEINEGALVNTSDLNEELGQVDYVFTDKTGTLTENSMEFIECCIDGHKYKGVTQEVDGLSQTDGTLTYFDKVDKNREELFLRALCLCHTVEIKTNDAVDGATESAELTYISSSPDEIALVKGAKRYGFTFLGNRNGYMRVENQRKEIEEYELLHTLNFDAVRRRMSVIVKTQEGDILLFCKGADSAVFPRVQNHEIELTKVHVERNAMDGYRTLCVAFKEIAPDDYERINRQLIEAKMALQDREEKMEKVFDDIETNMNLIGATAVEDKLQDQAAETIEALHAAGLKVWVLTGDKMETAKSTCYACRLFQTNTELLELTTKTIEESERKEDRLHELLIEYRKKLLHEFPKSTRSFKKAWTEHQEYGLIIDGSTLSLILNSSQDSSSNNYKSIFLQICMKCTAVLCCRMAPLQKAQIVRMVKNLKGSPITLSIGDGANDVSMILESHVGIGIKGKEGRQAARNSDYSVPKFKHLKKLLLAHGHLYYVRIAHLVQYFFYKNLCFILPQFLYQFFCGFSQQPLYDAAYLTMYNICFTSLPILAYSLLEQHINIDTLTSDPRLYMKISGNAMLQLGPFLYWTFLAAFEGTVFFFGTYFLFQTASLEENGKVYGNWTFGTIVFTVLVFTVTLKLALDTRFWTWINHFVIWGSLAFYVFFSFFWGGIIWPFLKQQRMYFVFAQMLSSVSTWLAIILLIFISLFPEILLIVLKNVRRRSARRNLSCRRASDSLSARPSVRPLLLRTFSDESNVL
partner: B1 partner
B4: Phospholipid-transporting ATPase IF (Homo sapiens), Q9Y2G3 (parent)
chain: MWRWIRQQLGFDPPHQSDTRTIYVANRFPQNGLYTPQKFIDNRIISSKYTVWNFVPKNLFEQFRRVANFYFLIIFLVQLMIDTPTSPVTSGLPLFFVITVTAIKQGYEDWLRHNSDNEVNGAPVYVVRSGGLVKTRSKNIRVGDIVRIAKDEIFPADLVLLSSDRLDGSCHVTTASLDGETNLKTHVAVPETALLQTVANLDTLVAVIECQQPEADLYRFMGRMIITQQMEEIVRPLGPESLLLRGARLKNTKEIFGVAVYTGMETKMALNYKSKSQKRSAVEKSMNTFLIIYLVILISEAVISTILKYTWQAEEKWDEPWYNQKTEHQRNSSKILRFISDFLAFLVLYNFIIPISLYVTVEMQKFLGSFFIGWDLDLYHEESDQKAQVNTSDLNEELGQVEYVFTDKTGTLTENEMQFRECSINGMKYQEINGRLVPEGPTPDSSEGNLSYLSSLSHLNNLSHLTTSSSFRTSPENETELIKEHDLFFKAVSLCHTVQISNVQTDCTGDGPWQSNLAPSQLEYYASSPDEKALVEAAARIGIVFIGNSEETMEVKTLGKLERYKLLHILEFDSDRRRMSVIVQAPSGEKLLFAKGAESSILPKCIGGEIEKTRIHVDEFALKGLRTLCIAYRKFTSKEYEEIDKRIFEARTALQQREEKLAAVFQFIEKDLILLGATAVEDRLQDKVRETIEALRMAGIKVWVLTGDKHETAVSVSLSCGHFHRTMNILELINQKSDSECAEQLRQLARRITEDHVIQHGLVVDGTSLSLALREHEKLFMEVCRNCSAVLCCRMAPLQKAKVIRLIKISPEKPITLAVGDGANDVSMIQEAHVGIGIMGKEGRQAARNSDYAIARFKFLSKLLFVHGHFYYIRIATLVQYFFYKNVCFITPQFLYQFYCLFSQQTLYDSVYLTLYNICFTSLPILIYSLLEQHVDPHVLQNKPTLYRDISKNRLLSIKTFLYWTILGFSHAFIFFFGSYLLIGKDTSLLGNGQMFGNWTFGTLVFTVMVITVTVKMALETHFWTWINHLVTWGSIIFYFVFSLFYGGILWPFLGSQNMYFVFIQLLSSGSAWFAIILMVVTCLFLDIIKKVFDRHLHPTSTEKAQLTETNAGIKCLDSMCCFPEGEAACASVGRMLERVIGRCSPTHISRSWSASDPFYTNDRSILTLSTMDSSTC
partner: B1 partner

Variants of: B1
Details: with cc50a_human TMEM30A

Row | Variant | effect of a mutation on the interaction
1 | D427N | disrupting interaction strength
2 | G202L | disrupting interaction strength
3 | E203Q | increasing interaction strength

Variants of: B2
Details: with cc50a_human TMEM30A

Row | Variant | effect of a mutation on the interaction
4 | D414N | disrupting interaction strength
5 | E186Q | increasing interaction strength
6 | G185L | disrupting interaction strength

Variants of: B3
Details: with cc50a_human TMEM30A

Row | Variant | effect of a mutation on the interaction
7 | D412N | disrupting interaction strength
8 | G183L | disrupting interaction strength
9 | E184Q | increasing interaction strength

Variants of: B4
Details: with cc50a_human TMEM30A

Row | Variant | effect of a mutation on the interaction
10 | E180Q | increasing interaction strength
11 | G179L | decreasing interaction strength
12 | D407N | disrupting interaction strength
